# Measured values as given in patent US20180155451A1 (published 2018).
# Numbering of substitutions follows the chain as printed. Numbers in names are those of the source.
# T1: FcγRIIa R type extracellular domain with C-terminal His tag (human, UniProt P12318 34-217)
# T1 construct: extracellular domain; also called FcgRIIa R; FcgRIIaR; not shown: His tag at the C terminus
# T1 sequence (looked up): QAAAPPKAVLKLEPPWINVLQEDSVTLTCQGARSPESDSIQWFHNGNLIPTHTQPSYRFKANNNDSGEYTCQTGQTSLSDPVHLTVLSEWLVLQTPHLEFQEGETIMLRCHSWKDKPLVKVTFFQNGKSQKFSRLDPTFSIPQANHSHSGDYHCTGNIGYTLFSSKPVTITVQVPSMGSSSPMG
# T2: FcγRIIa H type extracellular domain with C-terminal His tag (human, UniProt P12318 34-217)
# T2 construct: extracellular domain; also called FcgRIIa H; FcgRIIaH; not shown: His tag at the C terminus
# T2 sequence (looked up): T1 sequence (looked up) with R134H
# T3: FcγRIIb extracellular domain with C-terminal His tag (human, UniProt P31994 43-217)
# T3 construct: extracellular domain; also called FcgRIIb; 2b; not shown: His tag at the C terminus
# T3 sequence (looked up): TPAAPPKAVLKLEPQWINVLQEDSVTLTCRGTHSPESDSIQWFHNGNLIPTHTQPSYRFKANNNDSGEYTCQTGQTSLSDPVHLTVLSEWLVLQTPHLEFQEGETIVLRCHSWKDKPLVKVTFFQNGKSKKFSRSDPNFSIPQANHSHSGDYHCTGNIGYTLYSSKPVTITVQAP
# B1: H240-FA012/H240-FB056/L73-k0 (antibody, human IgG1, kappa)
# heavy 1: QDQLVQSGAEVKKPGASVKVSCKASGFNIKDTYIQWVRQAPGQGLEWMGRIDPLRKQTKYREKFEGRVTITADTSTNTAYMELSSLRSEDTAVYYCVRSGREFDYWGQGTLVTVSSASTKGPSVFPLAPSSKSTSGGTAALGCLVKDYFPEPVTVSWNSGALTSGVHTFPAVLQSSGLYSLSSVVTVPSSSLGTKTYICNVNHKPSNTKVDKKVEPKSCDKTHTCPPCPAPEYYWGPSVFLFPPKPKDTLMISRTPEVTCVVVDVSDEEPKVKFNWYVDGVEVHNAKTKPREEQYNATYRVVSVLTVLHQDWLNGKEYKCKVSNKALPAPIEKTISKAKGQPREPQVYTLPPSRKEMTKNQVSLTCLVKGFYPSDIAVEWESNGQPENNYKTTPPVLDSDGSFFLYSKLTVDKSRWQQGNVFSCSVMHEALHNRYTQKSLSLSP
# heavy 2: QDQLVQSGAEVKKPGASVKVSCKASGFNIKDTYIQWVRQAPGQGLEWMGRIDPLRKQTKYREKFEGRVTITADTSTNTAYMELSSLRSEDTAVYYCVRSGREFDYWGQGTLVTVSSASTKGPSVFPLAPSSKSTSEGTAALGCLVEDYFPEPVTVSWNSGALTSGVHTFPAVLQSSGLYSLSSVVTVPSSSLGTQTYICNVDHKPSNTKVDKKVEPKSCDKTHTCPPCPAPELLGGPSVFLFPPKPKDTLMISRTPEVTCVVVDVSHEEPEVQFNWYVDGVEVHNAETKPREEQYNSTYRVVSVLTVLHQDWLNGKEYKCKVSNDALPMPIEETISKAKGQPREPQVYTLPPSREEMTKNQVSLTCLVKGFYPSDIAVEWESNGQPENNYKTTPPVLDSDGSFFLYSKLTVDKSRWQQGNVFSCSVMHEALHNHYTQESLSLSP
# light: DIQMTQSPSSLSASVGDRVTITCRASQDIHKYIAWYQQKPGQAPRLLIQYTSTLQPGVPSRFSGSGSGTDYTFTISSLQPEDIATYYCLQYEQLRTFGGGTKVEIKRTVAAPSVFIFPPSDEQLKSGTASVVCLLNNFYPREAKVQWKVDNALQSGNSQESVTEQDSKDSTYSLSSTLTLSKADYEKHKVYACEVTHQGLSSPVTKSFNRGEC
# notes: Heterodimerized anti-EREG IgG1 antibody; A chain altered from H240-AK072, B chain altered from H240-BH076
# B2: H240-FA030/H240-FB084/L73-k0 (antibody, human IgG1, kappa)
# heavy 1: B1 heavy 1 with I198T
# heavy 2: B1 heavy 2 with G137S, S191N, L192F, I198T, K213T, N383E
# light: B1 light
# notes: as for B1
# B3: H240-FA030/H240-FB083/L73-k0 (antibody, human IgG1, kappa)
# heavy 1: B1 heavy 1 with I198T
# heavy 2: B1 heavy 2 with G137S, S191N, L192F, I198T, K213T
# light: B1 light
# notes: as for B1
# B4: H240-FA024/H240-FB065/L73-k0 (antibody, human IgG1, kappa)
# heavy 1: B1 heavy 1 with I198T, M357K
# heavy 2: B1 heavy 2 with G137S, E146K, S191N, L192F, I198T, K213T
# light: B1 light
# notes: as for B1
# B5: H240-FA030/H240-FB082/L73-k0 (antibody, human IgG1, kappa)
# heavy 1: B1 heavy 1 with I198T
# heavy 2: B1 heavy 2 with E136G, G137E, D202N, N383E
# light: B1 light
# notes: as for B1
# B6: H240-FA024/H240-FB082/L73-k0 (antibody, human IgG1, kappa)
# heavy 1: B1 heavy 1 with I198T, M357K
# heavy 2: B1 heavy 2 with E136G, G137E, D202N, N383E
# light: B1 light
# notes: as for B1
# B7: H240-FA030/H240-FB065/L73-k0 (antibody, human IgG1, kappa)
# heavy 1: B1 heavy 1 with I198T
# heavy 2: B1 heavy 2 with G137S, E146K, S191N, L192F, I198T, K213T
# light: B1 light
# notes: as for B1
# B8: H240-FA030/H240-FB064/L73-k0 (antibody, human IgG1, kappa)
# heavy 1: B1 heavy 1 with I198T
# heavy 2: B1 heavy 2 with G137S, E146K, S191N, L192F, I198T, K213T, E287K
# light: B1 light
# notes: as for B1
# B9: H240-FA024/H240-FB064/L73-k0 (antibody, human IgG1, kappa)
# heavy 1: B1 heavy 1 with I198T, M357K
# heavy 2: B1 heavy 2 with G137S, E146K, S191N, L192F, I198T, K213T, E287K
# light: B1 light
# notes: as for B1
# B10: H240-FA024/H240-FB059/L73-k0 (antibody, human IgG1, kappa)
# heavy 1: B1 heavy 1 with I198T, M357K
# heavy 2: B1 heavy 2 with E136G, G137E, D202N
# light: B1 light
# notes: as for B1
# B11: GpH7-A5/GpH7-B3 variant (A330P)/GpL16-k0 (antibody, human IgG1, kappa)
# heavy 1: not shown
# heavy 2: not shown
# light: DIVMTQSPLSLPVTPGEPASISCQASESLVHSNRNTYLHWYLQKPGQSPQLLIYKVSNRFSGVPDRFSGSGSGTDFTLKISRVEAEDVGVYYCSQNTHVPPTFGQGTKVEIERTVAAPSVFIFPPSDEQLKSGTASVVCLLNNFYPREAKVQWKVDNALQSGNSQESVTEQDSKDSTYSLSSTLTLSKADYEKHKVYACEVTHQGLSSPVTKSFNRGEC
# notes: also called A330_05P; He Ab
# B12: GpH7-A5/GpH7-B3 variant (S298A)/GpL16-k0 (antibody, human IgG1, kappa)
# heavy 1: not shown
# heavy 2: not shown
# light: B11 light
# notes: also called S298_02A; GpH7-A5/GpH7-B3-15-02A/GpL16-k0
# B13: GpH7-A5/GpH7-B3 variant (K334I)/GpL16-k0 (antibody, human IgG1, kappa)
# heavy 1: not shown
# heavy 2: not shown
# light: B11 light
# notes: also called K334_07I; He Ab
# B14: GpH7-A5/GpH7-B3 variant (K326T)/GpL16-k0 (antibody, human IgG1, kappa)
# heavy 1: not shown
# heavy 2: not shown
# light: B11 light
# notes: also called K326_14T; He Ab
# B15: GpH7-A5/GpH7-B3 variant (H268E)/GpL16-k0 (antibody, human IgG1, kappa)
# heavy 1: not shown
# heavy 2: not shown
# light: B11 light
# notes: also called H268_10E; He Ab
# B16: GpH7-A5/GpH7-B3 variant (K334D)/GpL16-k0 (antibody, human IgG1, kappa)
# heavy 1: not shown
# heavy 2: not shown
# light: B11 light
# notes: also called K334_09D; He Ab
# B17: GpH7-A5/GpH7-B3 variant (K326I)/GpL16-k0 (antibody, human IgG1, kappa)
# heavy 1: not shown
# heavy 2: not shown
# light: B11 light
# notes: also called K326_07I; He Ab
# B18: GpH7-A5/GpH7-B3 variant (K334E)/GpL16-k0 (antibody, human IgG1, kappa)
# heavy 1: not shown
# heavy 2: not shown
# light: B11 light
# notes: also called K334_10E; He Ab
# B19: GpH7-A5/GpH7-B3 variant (H268A)/GpL16-k0 (antibody, human IgG1, kappa)
# heavy 1: not shown
# heavy 2: not shown
# light: B11 light
# notes: also called H268_02A; He Ab
# B20: GpH7-A5/GpH7-B3 variant (K326D)/GpL16-k0 (antibody, human IgG1, kappa)
# heavy 1: not shown
# heavy 2: not shown
# light: B11 light
# notes: also called K326_09D; He Ab
# Molecular target: T4, FcγRIa extracellular domain with C-terminal His tag (human, UniProt P12314 16-292)
# T4 construct: extracellular domain; also called FcgRI; FcgRIa; not shown: His tag at the C terminus
# Assay: SPR (Biacore), antibody captured on chip, soluble FcgR as analyte; experiment 1
# Method: (§1) Antibodies of interest were analyzed for the interaction to FcgR according to the method described in Reference Example 8.
# (§2) Analysis of interaction between obj ective antibody and the FcγR was carried out using Biacore T100 (GE Healthcare), Biacore T200, Biacore A100, and Biacore 4000. HBS-EP+ (GE Healthcare) was used as the running buffer, and the measurement temperature was set to 25° C. Chips produced by immobilizing the antigen peptide by the amine coupling method to a Series S sensor Chip CM5 (GE Healthcare), chips produced by allowing preliminarily biotinylated antigen peptides to interact with and immobilize onto a Series S Sensor Chip SA (certified) (GE Healthcare), chips produced by immobilizing Protein L (ACTIGEN, BioVision) to Series S Sencor Chip CM5 (GE Healthcare), or chips produced by immobilizing Protein A/G (Thermo Scientific) to Series S Sencor Chip CM5 (GE Healthcare) were used. Antibodies of interest were captured onto these chips, and allowed to interact to each FcγR diluted with running buffer. To regenerate and repeatedly use the chip, the antibodies captured onto the chip were washed off by reacting 10 mM glycine-HCl, pH 1.5.
# T4 sequence (P12314 16-292): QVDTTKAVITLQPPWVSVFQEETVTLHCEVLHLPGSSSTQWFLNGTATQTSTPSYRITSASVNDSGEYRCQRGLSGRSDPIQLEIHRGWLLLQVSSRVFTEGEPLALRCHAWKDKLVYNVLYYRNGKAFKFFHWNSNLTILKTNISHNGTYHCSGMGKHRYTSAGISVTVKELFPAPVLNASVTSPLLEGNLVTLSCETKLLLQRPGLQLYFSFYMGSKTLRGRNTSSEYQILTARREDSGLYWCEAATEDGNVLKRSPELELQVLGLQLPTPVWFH
row,Kd [nM],Binder
1,0.1,B1
2,0.12,B2
3,0.081,B3
4,0.15,B4
5,0.092,B5
6,0.13,B6
7,0.1,B7
8,0.057,B8
9,0.095,B9
10,0.089,B10

# Molecular target: T1, FcγRIIa R type extracellular domain …
# Assay: as above
# Method: as §1, §2
row,Kd [nM],Binder
1,280,B1
2,270,B2
3,280,B3
4,300,B4
5,300,B5
6,240,B6
7,340,B7
8,290,B8
9,330,B9
10,290,B10

# Molecular target: T2, FcγRIIa H type extracellular domain …
# Assay: as above
# Method: as §1, §2
row,Kd [nM],Binder
1,86,B1
2,88,B2
3,82,B3
4,95,B4
5,88,B5
6,80,B6
7,99,B7
8,96,B8
9,110,B9
10,93,B10

# Molecular target: T3, FcγRIIb extracellular domain with …
# Assay: as above
# Method: as §1, §2
row,Kd [nM],Binder
1,1400,B1
2,2500,B2
3,1500,B3
4,1700,B4
5,1900,B5
6,1500,B6
7,2400,B7
8,1800,B8
9,1900,B9
10,1600,B10

# Molecular target: T5, FcγRIIIa F type extracellular domain with C-terminal His tag (human, UniProt P08637 17-208)
# T5 construct: extracellular domain; also called FcgRIIIa F; FcgRIIIaF; not shown: His tag at the C terminus
# Assay: as above
# Method: as §1, §2
# T5 sequence (P08637 17-208): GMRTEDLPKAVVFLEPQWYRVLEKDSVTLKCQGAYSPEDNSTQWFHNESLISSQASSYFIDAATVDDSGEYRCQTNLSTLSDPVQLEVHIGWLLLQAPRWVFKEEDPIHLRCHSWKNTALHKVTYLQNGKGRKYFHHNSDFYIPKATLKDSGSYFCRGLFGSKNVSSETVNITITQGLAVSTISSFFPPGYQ
row,Kd [nM],Binder
1,5,B1
2,4.2,B2
3,3.9,B3
4,5,B4
5,4.3,B5
6,4.6,B6
7,4.6,B7
8,5.3,B8
9,4.7,B9
10,4.4,B10

# Molecular target: T6, FcγRIIIa V type extracellular domain with C-terminal His tag (human, UniProt P08637 17-208)
# T6 construct: extracellular domain; also called FcgRIIIa V; FcgRIIIaV; not shown: His tag at the C terminus
# Assay: as above
# Method: as §1, §2
# T6 sequence (P08637 17-208 F176V): as the sequence (P08637 17-208) above, with F160V counted along it
row,Kd [nM],Binder
1,1.3,B1
2,1.3,B2
3,1.2,B3
4,1.4,B4
5,1.3,B5
6,1.3,B6
7,1.1,B7
8,1.5,B8
9,1.3,B9
10,1.3,B10

# Molecular target: T7, FcgRIIIa F (human, UniProt P08637 17-208)
# T7 construct: extracellular domain; also called FcγRIIIa F; 3aF; not shown: His tag attached to the C terminus
# Assay: SPR (Biacore); binding of the heterodimerized antibody relative to GpH7-A5/GpH7-B3/GpL16-k0 = 100
# T7 sequence (P08637 17-208): as the sequence (P08637 17-208) above
row,He/Con_3aF,Binder
1,152,B11
2,151,B12
3,156,B13
4,140,B14
5,184,B15
6,164,B16
7,153,B17
8,186,B18
9,121,B19
10,148,B20
